Reference: patent US20180057604A1 (Genentech, published 2018)
Read-outs that look alike come from different tables or passages of the source.

Experiments:
[1] = target: T1, murine BACE1 ECD; experiment: Octet, pH 5.0
T1 construct: analyte of the Octet assay (200 nM) and enzyme of the first short substrate assay

[2] = target: T2, human BACE1 ECD; experiment: Octet, pH 5.0
T2 construct: analyte of the Octet assay (200 nM) and enzyme of the first short substrate assay; also called human BACE1 extracellular domain

[3] = target: T1, murine BACE1 ECD; experiment: cell-based or functional assay
[4] = target: T2, human BACE1 ECD; experiment: cell-based or functional assay
[5] = target: T3, human BACE1 (R&D Systems) (human, UniProt P56817); experiment: SPR (Biacore)
T3 construct: recombinant, commercial (R&D Systems)

[6] = target: T1, murine BACE1 ECD; experiment: Octet, pH 7.5
[7] = target: T2, human BACE1 ECD; experiment: Octet, pH 7.5
[8] = target: BACE1 (HTRF long substrate and FRET short substrate assays of Example 9D); experiment: cell-based or functional assay
[9] = target: T4, BACE1 in primary mouse cortical neurons (mouse, UniProt P56818 46-501); experiment: cell-based or functional assay
[10] = target: T4, BACE1 in primary mouse cortical neurons; experiment: cell-based or functional assay; remark: listed apart in the source
[11] = target: T1, murine BACE1 ECD; experiment: Octet, pH 7.5; remark: listed apart in the source
[12] = target: T2, human BACE1 ECD; experiment: Octet, pH 7.5; remark: listed apart in the source
[13] = target: T1, murine BACE1 ECD; experiment: Octet, pH 5.0; remark: listed apart in the source
[14] = target: T2, human BACE1 ECD; experiment: Octet, pH 5.0; remark: listed apart in the source
[15] = target: T4, BACE1 in primary mouse cortical neurons; experiment: cell-based or functional assay; remark: listed apart in the source

T1 sequence (single chain, as listed by the source limits assumed): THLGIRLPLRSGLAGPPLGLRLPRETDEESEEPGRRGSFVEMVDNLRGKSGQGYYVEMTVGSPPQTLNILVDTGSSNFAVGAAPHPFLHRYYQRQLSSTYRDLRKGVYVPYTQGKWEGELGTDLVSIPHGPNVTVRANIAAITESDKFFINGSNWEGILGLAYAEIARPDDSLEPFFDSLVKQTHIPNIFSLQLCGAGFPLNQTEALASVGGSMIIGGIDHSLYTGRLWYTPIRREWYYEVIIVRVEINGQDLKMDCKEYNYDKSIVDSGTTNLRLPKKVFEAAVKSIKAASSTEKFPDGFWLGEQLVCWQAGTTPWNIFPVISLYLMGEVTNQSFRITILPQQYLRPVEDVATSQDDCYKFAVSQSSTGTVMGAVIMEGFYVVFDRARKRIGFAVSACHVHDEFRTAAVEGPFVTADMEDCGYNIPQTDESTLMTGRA
T2 sequence (single chain, as listed by the source limits assumed): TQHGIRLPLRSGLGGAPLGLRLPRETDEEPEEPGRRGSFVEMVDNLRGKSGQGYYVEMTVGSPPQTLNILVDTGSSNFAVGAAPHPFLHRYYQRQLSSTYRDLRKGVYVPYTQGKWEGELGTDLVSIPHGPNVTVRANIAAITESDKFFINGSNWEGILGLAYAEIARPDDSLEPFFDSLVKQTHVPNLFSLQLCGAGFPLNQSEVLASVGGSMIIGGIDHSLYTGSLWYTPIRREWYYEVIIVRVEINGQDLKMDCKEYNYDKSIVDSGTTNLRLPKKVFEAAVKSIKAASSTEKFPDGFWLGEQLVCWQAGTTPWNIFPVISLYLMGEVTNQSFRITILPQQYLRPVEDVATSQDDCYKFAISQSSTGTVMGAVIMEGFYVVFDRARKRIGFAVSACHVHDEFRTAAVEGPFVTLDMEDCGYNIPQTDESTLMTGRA
T3 sequence (P56817 22-457 limits assumed): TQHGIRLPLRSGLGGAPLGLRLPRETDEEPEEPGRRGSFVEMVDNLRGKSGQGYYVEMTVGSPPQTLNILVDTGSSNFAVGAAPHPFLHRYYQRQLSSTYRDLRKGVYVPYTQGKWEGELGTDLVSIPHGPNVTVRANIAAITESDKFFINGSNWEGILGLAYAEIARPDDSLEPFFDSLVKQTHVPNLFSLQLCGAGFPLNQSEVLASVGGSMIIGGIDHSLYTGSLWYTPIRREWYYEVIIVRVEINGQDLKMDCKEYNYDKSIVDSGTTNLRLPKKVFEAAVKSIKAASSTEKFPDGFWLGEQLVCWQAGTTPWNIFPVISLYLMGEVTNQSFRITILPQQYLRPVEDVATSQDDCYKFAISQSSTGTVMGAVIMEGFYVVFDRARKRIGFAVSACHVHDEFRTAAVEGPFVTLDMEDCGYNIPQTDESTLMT
T4 sequence (P56818 46-501): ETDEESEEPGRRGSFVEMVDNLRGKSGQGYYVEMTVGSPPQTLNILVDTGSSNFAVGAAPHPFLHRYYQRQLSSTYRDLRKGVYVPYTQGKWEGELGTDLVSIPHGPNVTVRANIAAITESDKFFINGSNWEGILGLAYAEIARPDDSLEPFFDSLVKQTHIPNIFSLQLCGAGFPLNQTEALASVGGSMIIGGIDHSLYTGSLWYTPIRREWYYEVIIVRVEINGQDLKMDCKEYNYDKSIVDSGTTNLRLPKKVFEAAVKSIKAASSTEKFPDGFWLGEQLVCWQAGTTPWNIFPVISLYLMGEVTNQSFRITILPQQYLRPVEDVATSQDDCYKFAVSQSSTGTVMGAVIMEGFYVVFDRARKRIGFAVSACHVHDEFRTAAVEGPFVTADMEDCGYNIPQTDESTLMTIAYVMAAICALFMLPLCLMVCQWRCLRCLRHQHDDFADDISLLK

Binder	Kd [1] [nM]	Kd [2] [nM]	% inhibition of BACE1 activity, short FRET substrate [3] [%]	% inhibition of BACE1 activity, short FRET substrate [4] [%]	Kd [5] [nM]	Kd [6] [nM]	Kd [7] [nM]	EC50, FRET short substrate [8] [nM]	EC50, HTRF long substrate [8] [nM]	IC50, Abeta x-40 in mouse cortical neurons [9] [nM]	maximal % inhibition of Abeta x-40 [9] [%]	IC50, Abeta x-40 in mouse cortical neurons [10] [nM]	maximal % inhibition of Abeta x-40 [10] [%]	Kd [11] [nM]	Kd [12] [nM]	Kd [13] [nM]	Kd [14] [nM]	IC50, Abeta x-40 in mouse cortical neurons [15] [nM]	maximal % inhibition of Abeta x-40 [15] [%]
5888 (antibody, V domains shown, anti-BACE1 IgG) VH: QVQLVQSGAEVKKPGSSVKVSCKASGGTFWKYAISWVRQAPGQGLEWMGNIIPGFGTANYAQKFRGRVTITADESTSTAYMELSSLRSEDTAVYYCARSGGTKYGMLDVWGQGTMVTVSS VL: EIVMTQSPATLSVSPGERATLSCRASQSVSSNLAWYQQKPGQAPRLLIYGASTRATGIPARFSGSGSGTEFTLTISSLQSEDFAVYYCQQLILWPPRTFGGGTKVEIK	2	1.8	-183	-86	4.25	1.4	0.86	0.602	2.5	1.79	82	–	–	–	–	–	–	–	–
6305 (antibody, V domains shown, anti-BACE1 IgG) VH: QVQLVQSGAEVKKPGSSVKVSCKASGGTLSGYAISWVRQAPGQGLEWMGNIIPGFGTANYAQKSQGRVTITADESTSTAYMELSSLRSEDTAVYYCARSGGTRYGMLDVWGQGTMVTVSS VL: EIVLTQSPATLSVSPGERATLSCRASQSVGSNLAWYQQKPGQAPRLLIYGASTRATGIPARFSGSGSGTEFTLTISSLQSEDFAVYYCQQSFVWPPRTFGGGTKVEIK	–	–	–	–	–	–	–	–	–	–	–	9.69	67	0.56	0.53	1.6	0.96	–	–
5892 (antibody, V domains shown, anti-BACE1 IgG) VH: QVQLVQSGAEVKKPGSSVKVSCKASGGTFSSYAISWVRQAPGQGLEWMGNIIPIFGTATYAQKFQGRVTITADESTSTAYMELSSLRSEDTAVYYCARSGGTKYGMLDVWGQGTMVTVSS VL: EIVMTQSPATLSVSPGERATLSCRASQSVGSNLAWYQQKPGQAPRLLIYGASTRATGIPARFSGSGSGTEFTLTISSLQSEDFAVYYCQQLYTWPPRTFGGGTKVEIK	1.1	0.39	64	64	2.97	1.3	0.88	16.4	1.19	9.52	73	–	–	–	–	–	–	–	–
5893 (antibody, V domains shown, anti-BACE1 IgG) VH: QVQLVQSGAEVKKPGSSVKVSCKASGGTFRGYAISWVRQAPGQGLEWMGNIIPGFGTANYAQKFQGRVTITADESTSTAYMELSSLRSEDTAVYYCARSGGTKYGMLDVWGQGTMVTVSS VL: EIVMTQSPATLSVSPGERATLSCRASQSVGSNLAWYQQKPGQAPRLLIYGASTRATGIPARFSGSGSGTEFTLTISSLQSEDFAVYYCQQLYTWPPRTFGGGTKVEIK	0.73	0.38	69	72	2.76	0.98	0.33	8.84	3.59	9.46	73	–	–	–	–	–	–	–	–
5930 (antibody, V domains shown, anti-BACE1 IgG) VH: QVQLVQSGAEVKKPGSSVKVSCKASGGTLSGYAISWVRQAPGQGLEWMGNIIPGFGTANYAQKSQGRVTITADESTSTAYMELSSLRSEDTAVYYCARSGGTRYGMLDVWGQGTMVTVSS VL: EIVMTQSPATLSVSPGERATLSCRASQSVGSNLAWYQQKPGQAPRLLIYGASTRATGIPARFSGSGSGTEFTLTISSLQSEDFAVYYCQQLYTWPPRTFGGGTKVEIK	< 0.29	< 0.23	–	–	6.41	< 0.3	< 0.29	–	–	–	–	–	–	–	–	–	–	7.52	74
